T1: 6xHIS-GluTR1 (glutamyl-tRNA reductase 1) (Arabidopsis, UniProt P42804 62-543)
T1 construct: glutamyl-tRNA reductase 1 (GluTR1), Arabidopsis, encoded by HEMA1; Czarnecki et al., 2011; Wang et al., 2018; source: E. coli BL21, purified (Ni-NTA)
T1 sequence (looked up): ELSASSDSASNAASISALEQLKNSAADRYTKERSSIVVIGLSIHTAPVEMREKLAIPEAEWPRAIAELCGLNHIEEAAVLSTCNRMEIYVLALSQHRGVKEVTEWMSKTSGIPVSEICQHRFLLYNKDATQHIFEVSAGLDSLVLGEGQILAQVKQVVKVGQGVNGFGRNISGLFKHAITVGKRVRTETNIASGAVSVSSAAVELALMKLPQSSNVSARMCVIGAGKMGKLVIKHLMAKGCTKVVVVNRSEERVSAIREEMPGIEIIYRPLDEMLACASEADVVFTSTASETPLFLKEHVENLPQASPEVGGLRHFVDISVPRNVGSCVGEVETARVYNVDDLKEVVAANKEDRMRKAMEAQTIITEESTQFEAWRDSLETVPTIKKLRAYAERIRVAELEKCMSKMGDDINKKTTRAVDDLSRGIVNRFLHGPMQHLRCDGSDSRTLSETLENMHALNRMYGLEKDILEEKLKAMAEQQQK

T2: 6xHIS-GluTR1-FLUO (fluorophore-labeled 6xHIS-GluTR1) (Arabidopsis, UniProt P42804 62-543, fluorophore from the RED-NHS (Amine Reactive) protein labeling kit (second generation))
T2 construct: glutamyl-tRNA reductase 1 (GluTR1), Arabidopsis, encoded by HEMA1; same construct as m1, labeled; m1 after amine-reactive labelling; also called labeled HIS-GluTR; source: E. coli BL21, purified (Ni-NTA), labeled with the RED-NHS protein labeling kit
T2 sequence (looked up): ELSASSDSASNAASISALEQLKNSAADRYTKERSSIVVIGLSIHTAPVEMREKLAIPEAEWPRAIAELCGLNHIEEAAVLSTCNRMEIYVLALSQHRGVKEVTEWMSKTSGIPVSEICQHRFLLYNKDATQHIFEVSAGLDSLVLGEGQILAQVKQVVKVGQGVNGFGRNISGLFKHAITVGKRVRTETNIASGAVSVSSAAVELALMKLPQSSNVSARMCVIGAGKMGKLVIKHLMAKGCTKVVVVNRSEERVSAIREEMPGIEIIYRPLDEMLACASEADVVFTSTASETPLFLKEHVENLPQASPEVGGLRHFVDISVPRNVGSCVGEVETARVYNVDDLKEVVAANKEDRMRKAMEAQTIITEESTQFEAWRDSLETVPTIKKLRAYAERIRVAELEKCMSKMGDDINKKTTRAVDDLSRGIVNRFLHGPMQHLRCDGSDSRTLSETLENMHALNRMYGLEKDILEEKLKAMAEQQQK


Assays:
Settings in all cases: both partners purified
[1] = target: T1, 6xHIS-GluTR1 (glutamyl-tRNA reductase 1); assay: MST; as a3 with addition of 1 µM hemin
[2] = target: T1, 6xHIS-GluTR1 (glutamyl-tRNA reductase 1); assay: MST; 200 nM labeled 6xHIS-GBP-FLUO constant, 6xHIS-GluTR1 titrated from 7.5 µM, PBS, Monolith NT.115; Kd from initial fluorescence quenching; no hemin; n = 2
[3] = target: T2, 6xHIS-GluTR1-FLUO (fluorophore-labeled …); assay: MST; as a5 with addition of 1 µM hemin
[4] = target: T2, 6xHIS-GluTR1-FLUO (fluorophore-labeled …); assay: MST; 200 nM labeled 6xHIS-GluTR1-FLUO constant, 6xHIS-GBP titrated from 7.5 µM, PBS, Monolith NT.115; MST signal 1.5 s after turning on the laser; no hemin; n = 2

Binder | Kd [1] [nM] | Kd [2] [nM] | Kd [3] [nM] | Kd [4] [nM]
6xHIS-GBP-FLUO (fluorophore-labeled 6xHIS-GBP) (natural protein, Arabidopsis, UniProt Q9LU39 43-317, looked up, fluorophore from the RED-NHS (Amine Reactive) protein labeling kit (second generation), same construct as m3, labeled; m3 after amine-reactive labelling; also called labeled HIS-GBP; labeled GBP; source: E. coli BL21, purified (Ni-NTA), labeled with the RED-NHS protein labeling kit) SVSTTLDTPATASTHKPFPAEVSRSIMELSSVGTLSTLTHDGWPLGVGVRFAVDKDGTPVLCLNRSVSPDKRSALHVQLEQCGLRTPQCTIQGSIGRPGDDTVLKRLSATWREKFGEEVKEDSLYVVAVDRVLQMEDFMEDGIWVASSDYKNASPDPLRDIAEDIVNQINANNMEDIFRFCNVYVDLDFVVSETKMIWMDRLGFDLRVWSPRGVYDVRIPFPMEVTDEKGAKSSFNGMSQLAWEVEKSYCPADFNKVKLLKQVVGSSHSHKGGGQ | 931 | 65 |  | 
6xHIS-GBP (GluTR-binding protein) (natural protein, Arabidopsis, UniProt Q9LU39 43-317, looked up, Czarnecki et al., 2011; Wang et al., 2018; probably without the transit peptide; source: E. coli BL21, purified (Ni-NTA)) SVSTTLDTPATASTHKPFPAEVSRSIMELSSVGTLSTLTHDGWPLGVGVRFAVDKDGTPVLCLNRSVSPDKRSALHVQLEQCGLRTPQCTIQGSIGRPGDDTVLKRLSATWREKFGEEVKEDSLYVVAVDRVLQMEDFMEDGIWVASSDYKNASPDPLRDIAEDIVNQINANNMEDIFRFCNVYVDLDFVVSETKMIWMDRLGFDLRVWSPRGVYDVRIPFPMEVTDEKGAKSSFNGMSQLAWEVEKSYCPADFNKVKLLKQVVGSSHSHKGGGQ |  |  | 806 | 113

From publication PMC6597238, “The GluTR-binding protein is the heme-binding factor for feedback control of glutamyl-tRNA reductase” (eLife, 2019)
